Columns and labels:
Human IL-18 [1] = molecular target: T1, Human IL-18 (human, UniProt Q14116 37-193); test: cell-based or functional assay
T1 sequence: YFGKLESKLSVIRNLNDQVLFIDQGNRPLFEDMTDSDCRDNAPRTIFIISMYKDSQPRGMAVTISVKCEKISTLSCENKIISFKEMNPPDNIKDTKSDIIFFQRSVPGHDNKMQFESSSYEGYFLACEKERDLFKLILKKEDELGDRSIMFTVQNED

Human IL-18 [2] = molecular target: T1, Human IL-18; test: cell-based or functional assay; remark: listed apart in the source
Human IL-23 [3] = molecular target: T2, Human IL-23 (human, UniProt Q9NPF7 20-189; P29460 23-328); test: cell-based or functional assay
T2 sequence 1: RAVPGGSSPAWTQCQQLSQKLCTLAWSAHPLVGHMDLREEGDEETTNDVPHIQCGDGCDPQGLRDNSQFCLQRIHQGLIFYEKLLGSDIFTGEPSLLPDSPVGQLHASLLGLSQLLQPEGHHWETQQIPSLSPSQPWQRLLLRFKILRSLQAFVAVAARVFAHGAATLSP
T2 sequence 2: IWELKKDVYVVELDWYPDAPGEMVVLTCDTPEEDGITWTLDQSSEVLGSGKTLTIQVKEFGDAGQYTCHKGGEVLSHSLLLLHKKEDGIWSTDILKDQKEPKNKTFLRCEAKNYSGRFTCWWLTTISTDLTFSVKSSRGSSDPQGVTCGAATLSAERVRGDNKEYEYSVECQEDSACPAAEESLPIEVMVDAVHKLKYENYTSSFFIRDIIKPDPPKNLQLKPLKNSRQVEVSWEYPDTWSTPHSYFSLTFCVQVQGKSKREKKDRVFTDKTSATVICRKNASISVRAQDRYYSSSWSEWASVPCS

Human IL-23 [4] = molecular target: T2, Human IL-23; test: cell-based or functional assay; remark: listed apart in the source
Human IL-18 [5] = molecular target: T1, Human IL-18; test: SPR (Biacore), antibody captured on Protein A/G, cytokine as analyte, 25 C, 1:1 fit, n=1
Method: (§1) A heterodimeric bsAb, alongside anti-IL-18 and anti-IL-23 common light chain control bispecific antibodies, were assessed for binding to human and cyno IL-18 and IL-23, using the Biacore 8K and T200 (Cytiva) surface plasmon resonance (SPR) instruments. All reagents were generated recombinantly in-house with the exception of Rhesus monkey IL-18 which was purchased from R&D systems (Cat #2548-RM-025/CF). Rhesus and cynomolgus monkey amino acid sequences are identical. Therefore, the protein will be referred to as cynomolgus monkey IL-18.
(§2) Heterodimeric bsAb, anti-IL-18 and anti-IL-23 common light chain bispecific control molecules were assessed for binding to recombinant human and cynomolgus monkey IL-18 and IL-23 using the Biacore 8K and T200 (Cytiva) SPR instruments. The antibodies were captured onto Protein A/G, which was immobilised onto flow cell 2 of 8 channels (Biacore 8K) or flow cells 2, 3 and 4 (Biacore T200) of a CM5 series S sensor chip by primary amine coupling. The IL-18 or IL-23 analytes were passed over the captured antibodies at varying concentrations between 0.04-25 nM. The association phase was for 240 seconds at 30 μl/min, followed by a dissociation step of up to 1200 seconds. A 0 nM (i.e., buffer alone) injection was used to double reference the binding curves. Regeneration of the chip surface between cycles was carried out using 50 mM NaOH. The assay was run at 25° C. in HBS-EP⁺ buffer. Biacore 8K control software version 3.0 was used to run the experiment. Data was analysed using Biacore 8K Insight evaluation software version 3.0. Biacore T200 control software version 1.0 was used to run the experiment. Data was analysed using Biacore T200 evaluation software version 2.0. Affinities and kinetics were determined using the 1:1 kinetic fit inherent to the software where possible. All affinity values generated using both instruments were combined to determine geometric mean values.

Human IL-23 [6] = molecular target: T2, Human IL-23; test: as above
Method: as §1, §2

Row | Binder | IC50 (pM, Mean), neutralisation of human IL-18-induced IFNγ secretion by KG-1 cells (Human IL-18 [1]) [pM] | pIC50 (GeoMean), neutralisation of human IL-18-induced IFNγ secretion by KG-1 cells (Human IL-18 [1]) | IC50 Heterodimeric bsAbs (% of Parent IL-18 control 3), LPS + IL12-induced IFN-γ in human whole blood (Human IL-18 [2]) | IC50 Heterodimeric bsAbs (nM), inhibition of LPS + IL12-induced IFN-γ in human whole blood (Human IL-18 [2]) [nM] | IC50 Heterodimeric bsAbs (% of Parent IL-23 control 2), IL-23-induced pSTAT3 in T cells of human whole blood (Human IL-23 [3]) | IC50 Heterodimeric bsAbs (pM), inhibition of IL-23-induced pSTAT3 in CD3+CD161+ T cells of human whole blood (Human IL-23 [3]) [pM] | IC50 Heterodimeric bsAb (% of Parent IL-23 control 2), IL-23-induced mouse IL-17A in mouse splenocytes (Human IL-23 [4]) | IC50 Heterodimeric bsAb (pM), inhibition of human IL-23-induced mouse IL-17A secretion in mouse splenocytes (Human IL-23 [4]) [pM] | Kd (Human IL-18 [5]) [nM] | Kd (Human IL-23 [6]) [nM]
1 | Heterodimeric bsAb 1 (bispecific antibody, human IgG1, kappa, Het-mAb format: anti-IL-18 mAb on ZA and anti-IL-23 mAb (risankizumab) on ZB, with Fc heterodimerisation and silencing mutations; Expressed transiently in HEK293 6E cells) heavy 1: QVQLVQSGAEVKKPGASVKVSCKVSGEISTGYYFHWVRQAPGKGLEWMGRIDPEDDSTKYAERFKDRVTMTEDTSTDTAYMELSSLRSEDTAVYYCTTWRIYRDSSGRPFYVMDAWGQGTLVTVSSASTKGPSVFPLAPSSKSTSGGTAALGCEVTDYFPEPVTVSWNSGALTSGVHTFPAVLESSGLYSLSSVVTVPSSSLGTQTYICNVNHKPSNTKVDKKVEPKSCDKTHTCPPCPAPELAGAPSVFLFPPKPKDTLMISRTPEVTCVVVDVSHEDPEVKFNWYVDGVEVHNAKTKPREEQYNSTYRVVSVLTVLHQDWLNGKEYKCKVSNKALPAPIEKTISKAKGQPREPQVYVYPPSRDELTKNQVSLTCLVKGFYPSDIAVEWESNGQPENNYKTTPPVLDSDGSFALVSKLTVDKSRWQQGNVFSCSVMHEALHNHYTQKSLSLSPGK light 1: DIQMTQSPSSVSASVGDRVTITCLASEDIYTYLTWYQQKPGKAPKLLIYGANKLQDGVPSRFSGSGSGTDYTLTISSLQPEDFATYYCLQGSKFPLTFGQGTKLEIKRTVAAPSVFIFPPSDERLKSGTASVVCLLNNFYPREAKVQWKVDNALQSGNSQESVTEQDSKDSTYSLSSRLTLSKADYEKHKVYACEVTHQGLSSPVTKSFNRGEC heavy 2: QVQLVQSGAEVKKPGSSVKVSCKASGYTFTDQTIHWMRQAPGQGLEWIGYIYPRDDSPKYNENFKGKVTITADKSTSTAYMELSSLRSEDTAVYYCAIPDRSGYAWFIYWGQGTLVTVSSASTKGPSVFPLAPSSKSTSGGTAALGCRVKDYFPEPVTVSWNSGALTSGVHTFPAVLQSSGLYSLSSVVTVPSSSLGTQTYICNVNHKPSNTKVDKKVEPKSCDKTHTCPPCPAPELAGAPSVFLFPPKPKDTLMISRTPEVTCVVVDVSHEDPEVKFNWYVDGVEVHNAKTKPREEQYNSTYRVVSVLTVLHQDWLNGKEYKCKVSNKALPAPIEKTISKAKGQPREPQVYVLPPSRDELTKNQVSLLCLVKGFYPSDIAVEWESNGQPENNYLTWPPVLDSDGSFFLYSKLTVDKSRWQQGNVFSCSVMHEALHNHYTQKSLSLSPGK light 2: DIQMTQSPSSLSASVGDRVTITCKASRDVAIAVAWYQQKPGKVPKLLIYWASTRHTGVPSRFSGSGSRTDFTLTISSLQPEDVADYFCHQYSSYPFTFGSGTKLEIKRTVAAPSVFIFPPSDEELKSGTASVECLLNNFYPREAKVQWKVDNALQSGNSQESVTEQDSKDSTYSLSSTLTLSKADYEKHKVYACEVTHQGLSSPVTKSFNRGEC | 133 | 9.88 | 191 % of Parent | 16 | 218 % of Parent | 615 | 254 % of Parent | 153 | < 0.01 | 0.374
2 | Heterodimeric bsAb 2 (bispecific antibody, human IgG1, kappa, Het-mAb format: anti-IL-23 mAb (risankizumab) on ZA and anti-IL-18 mAb on ZB, with Fc heterodimerisation and silencing mutations) heavy 1: QVQLVQSGAEVKKPGSSVKVSCKASGYTFTDQTIHWMRQAPGQGLEWIGYIYPRDDSPKYNENFKGKVTITADKSTSTAYMELSSLRSEDTAVYYCAIPDRSGYAWFIYWGQGTLVTVSSASTKGPSVFPLAPSSKSTSGGTAALGCRVKDYFPEPVTVSWNSGALTSGVHTFPAVLQSSGLYSLSSVVTVPSSSLGTQTYICNVNHKPSNTKVDKKVEPKSCDKTHTCPPCP light 1: DIQMTQSPSSLSASVGDRVTITCKASRDVAIAVAWYQQKPGKVPKLLIYWASTRHTGVPSRFSGSGSRTDFTLTISSLQPEDVADYFCHQYSSYPFTFGSGTKLEIKRTVAAPSVFIFPPSDEELKSGTASVECLLNNFYPREAKVQWKVDNALQSGNSQESVTEQDSKDSTYSLSSTLTLSKADYEKHKVYACEVTHQGLSSPVTKSFNRGEC heavy 2: QVQLVQSGAEVKKPGASVKVSCKVSGEISTGYYFHWVRQAPGKGLEWMGRIDPEDDSTKYAERFKDRVTMTEDTSTDTAYMELSSLRSEDTAVYYCTTWRIYRDSSGRPFYVMDAWGQGTLVTVSSASTKGPSVFPLAPSSKSTSGGTAALGCEVTDYFPEPVTVSWNSGALTSGVHTFPAVLESSGLYSLSSVVTVPSSSLGTQTYICNVNHKPSNTKVDKKVEPKSCDKTHTCPPCPAPELAGAPSVFLFPPKPKDTLMISRTPEVTCVVVDVSHEDPEVKFNWYVDGVEVHNAKTKPREEQYNSTYRVVSVLTVLHQDWLNGKEYKCKVSNKALPAPIEKTISKAKGQPREPQVYVLPPSRDELTKNQVSLLCLVKGFYPSDIAVEWESNGQPENNYLTWPPVLDSDGSFFLYSKLTVDKSRWQQGNVFSCSVMHEALHNHYTQKSLSLSPGK light 2: DIQMTQSPSSVSASVGDRVTITCLASEDIYTYLTWYQQKPGKAPKLLIYGANKLQDGVPSRFSGSGSGTDYTLTISSLQPEDFATYYCLQGSKFPLTFGQGTKLEIKRTVAAPSVFIFPPSDERLKSGTASVVCLLNNFYPREAKVQWKVDNALQSGNSQESVTEQDSKDSTYSLSSRLTLSKADYEKHKVYACEVTHQGLSSPVTKSFNRGEC | 77.6 | 10.1 | 240 % of Parent | 18.2 | 249 % of Parent | 711 | 274 % of Parent | 147 | < 0.01 | 0.158
